The nature of data set [1]: Identification of enzymatic products of GES with GDP by SPME GC-MS. The format is biochemical. Particulars: SPME gas chromatogram of the reaction solution, peak identified by MS. Here is the method: GES enzyme assays were also performed by adding 100 μl of enzyme solution with 900 μl assay solution containing 54 μM non-radioactive GDP (Echelon Research Laboratories, Salt Lake City, Utah) and the same buffer described above. The reactions were carried out in an 8 mL DuPont autosampler vial with a white solid-top polypropylene cap (Alltech, Deerfield, Ill.). After letting the reaction proceed for 2-4 hr at 32° C., the liberated compounds were collected with a solid-phase microextraction (SPME) device PDMS-100 with a polydimethylsiloxane fiber (Supelco, Bekkefonte, Pa.) by inserting the fiber into the tube and leaving it in for 20 mim at 42° C. After this incubation step, the solid-phase microextraction fiber was directly injected into the GC-MS.

Data set [2] in a line: GES enzyme assay (conversion of [1-3H]-GDP, hexane-extractable product counted by scintillation). The format is biochemical. Particulars: GES purification from gland of basil “Sweet Dani” cultivar. As for the experimental part: GES activity was assayed by incubating 5 μl of the enzyme sample in a final volume of 50 μl buffer containing 50 mM Hepes-KOH, pH 8.0, 1 mM DTE, 0.5 mM MnCI2, 20 mM MgCl2, 10% glycerol and 54 μM [1-3H]-GDP (specific activity 20 Ci/mol, American Radiolabeled Chemicals, St. Louis, Mo.). After incubation for 30 mm at […], 160 μl hexane was added to the tube, and vortexed briefly and centrifuged to separated the phases. The hexane layer was directly placed into a scintillation vial containing 2 ml of nonaqueous scintillation fluid (Econo-Safe, Research Products International, Mount Prospect Ill.). This extraction procedure was repeated twice and the total hexane phase was counted by Liquid Scintillation counter (LS-6500 model, Beckman Coulter, Fullerton, Calif.). Boiled enzyme extracts were used as controls.

B1: Superose12: geraniol synthase purified from basil glands after Superose 12 size exclusion chromatography (protein, UniProt Q6USK1 64-567, looked up)
Geraniol synthase, …: QHMEESSSKRREYLLEETTRKLQRNDTESVEKLKLIDNIQQLGIGYYFEDAINAVLRSPFSTGEEDLFTAALRFRLLRHNGIEISPEIFLKFKDERGKFDESDTLGLLSLYEASNLGVAGEEILEEAMEFAEARLRRSLSEPAAPLHGEVAQALDVPRHLRMARLEARRFIEQYGKQSDHDGDLLELAILDYNQVQAQHQSELTEIIRWWKELGLVDKLSFGRDRPLECFLWTVGLLPEPKYSSVRIELAKAISILLVIDDIFDTYGEMDDLILFTDAIRRWDLEAMEGLPEYMKICYMALYNTTNEVCYKVLRDTGRIVLLNLKSTWIDMIEGFMEEAKWFNGGSAPKLEEYIENGVSTAGAYMAFAHIFFLIGEGVTHQNSQLFTQKPYPKVFSAAGRILRLWDDLGTAKEEQERGDLASCVQLFMKEKSLTEEEARSRILEEIKGLWRDLNGELVYNKNLPLSIIKVALNMARASQVVYKHDQDTYFSSVDNYVDALFFTQ
As to B1, the “Products of the reaction catalyzed by purified GES with GDP” value in data set [1] is reported as “Only a single peak was observed, identified as geraniol”. Also, the Total activity in data set [2] (activity of the fraction after the named purification step) is listed as 337.2 ptat. In data set [2] (activity per mg protein after the named purification step), this molecule gave a Specific activity of 6244.2 pkat/mg.
